From patent US20260000740A1, “USE OF A L-ASPARAGINASE IN COMBINATION WITH A FERROPTOSIS INDUCER FOR THE TREATMENT OF EXTRANODAL NATURAL KILLER/T-CELL LYMPHOMA” (Institut National de la Santé et de la Recherche Médicale, priority 2022, published 2026) come the findings set out here.

The subject of one assay is KHYG-1 cells. Kind of assay: Cell viability measurement by flow cytometry (Annexin V/PI). The assay is classed as cell-based, human. The settings on record: for Effect of Gln addition on cell death: Gln addition combined to treatment alone; for Asparaginase sensitivity: KHYG1 cell line. As for the experimental part:
KHYG-1 cells were seeded into flat wells of a 96-wells plate (Falcon) at a final concentration of 0.1 10^6 cells/well. APR-246 was dispensed at a final concentration of 20 uM and Asparaginases were dispensed at a final concentration range from 0.1 to 1 UI/mL. Plates were incubated at 37° C. and 5% CO2 for 72 hours in a humidity chamber. Cell viability was determined by flow cytometry using Annexin V (APC Annexin V, BD Biosciences, ref: 550474, 1:100 dilution)/Propidium Iodide (PI) (Propidium Iodide, Invitrogen, ref: BMS500FI-100, 1:20 dilution) staining. After 20 min incubation at 4° C. away from light, flow cytometry was performed using BD Fortessa cytometer (with HTS device for plate reading).
Flow cytometry data were analysed using FlowJo software and GraphPad-Prism 9. R software and Rstudio interface (version 1.4.1106) were used for synergy score calculation. Calculations were based on the Loewe model.
(Flow cytometry measures light scatter and fluorescence of single cells or particles in a stream.)

The next assay deals with lipid peroxidation. Kind of assay: Lipid peroxidation in KHYG1 cell line. The assay is classed as cell-based, human. The settings on record: added to RSL3 combined with Erwinase; FIG. 2B.
A further assay has as its system GSH. Kind of assay: Quantification of GSH levels and GSH/GSSG ratio in tumor cells (metabolomics, specific quantification). The settings on record: for GSH / GSH/GSSG ratio: metabolomic analysis in tumor cells after one day treatment, single agent. The assay is classed as cell-based, human. The text has this:
(§1) Then, we wanted to uncover the metabolic changes induced by ASNase resistance.

The next assay has as its system YT1 cell line. Kind of assay: Asparaginase sensitivity of cell lines. The assay is classed as cell-based, human.
The subject of assay [1] is NALM6 human acute lymphoblastic leukemia cell line. The assay is described as follows: Asparaginase sensitivity of cell lines. The assay is classed as cell-based.
For the next assay, the system named is MEC-04 cell line. Kind of assay: Asparaginase sensitivity of cell lines. The assay is classed as cell-based, human.
A further assay deals with mitochondrial ROS. Kind of assay: Quantification of mitochondrial ROS levels in tumor cells. The assay is classed as cell-based, human. To be noted: Erwinase compared to Kidrolase; data not shown.
Text: as §1

The subject of another assay is extracellular Gln. The assay is described as follows: Extracellular glutamine levels in supernatant of cultured cells. The assay is classed as cell-based, human. The settings on record: cells cultured with each drug; compared to Kidrolase; data not shown. The text has this:
Glutamine (Gln) intake from extracellular compartment is converted in Glutamate (Glu) by glutaminase (GLS) and participates to cancer cells protection from oxidative stress through solute carrier family 7-member 11 (SLC7A11) expression. SLC7A11 encodes the cystine/Glu antiporter xCT which imports cysteine into the cell in exchange for Glu […].

As for `COCC1(CO)C(=O)C2CCN1CC2` (stereo not shown) [APR-246, 2-(hydroxymethyl)-2-(methoxymethyl)-1-azabicyclo[2.2.2]octan-3-one, reference compound], the “Effect of Gln addition on cell death” value in the assay on KHYG-1 cells (data not shown) is listed as “no effect”.
In the case of `CCOC(=O)c1ccc(NC2CCCCC2)c(N)c1` [ferrostatin-1, reference compound], the “Effect of co-treatment with ferrostatin-1 on the decrease in cell viability” value with KHYG-1 cells (RSL3+Erwinase-treated cells, data not shown) is “abrogated”. Moreover, in the assay with lipid peroxidation, the “Effect of ferrostatin-1 addition on lipid peroxidation accumulation” value was “reversed”. Moreover, the “Effect of ferrostatin-1 addition on GSH decrease” value in the assay on GSH (added to RSL3 combined with Erwinase, FIG. 2B) is “reversed”.

B1: Kidrolase: L-Asparaginase from E. Coli (Kidrolase®) (protein, UniProt P00805 23-348, looked up)
L-asparaginase 2: LPNITILATGGTIAGGGDSATKSNYTVGKVGVENLVNAVPQLKDIANVKGEQVVNIGSQDMNDNVWLTLAKKINTDCDKTDGFVITHGTDTMEETAYFLDLTVKCDKPVVMVGAMRPSTSMSADGPFNLYNAVVTAADKASANRGVLVVMNDTVLDGRDVTKTNTTDVATFKSVNYGPLGYIHNGKIDYQRTPARKHTSDTPFDVSKLNELPKVGIVYNYANASDLPAKALVDAGYDGIVSAGVGNGNLYKSVFDTLATAAKTGTAVVRSSRVPTGATTQDAEVDDAKYGFVASGTLNPQKARVLLQLALTQTKDPQQIQQIFNQY
Take B1: the “Effect of Gln addition on cell death” value with KHYG-1 cells (data not shown) was “no effect”. In addition, the Asparaginase sensitivity result with KHYG-1 cells is on record as “resistant”; in the assay with YT1 cell line it was “high sensitivity”; in assay [1], “resistant”; with MEC-04 cell line, “high sensitivity”. In addition, the GSH entry in the assay with GSH (data not shown) is “decrease”. Moreover, the GSH/GSSG ratio result in the assay on GSH (data not shown) was “decrease”.

B2: Erwinase: L-ASP protein from Erwinia chrysanthemi, named crisantaspase, marketed as Erwinase®; SEQ ID NO:1 (protein, listed as Erwinia chrysanthemi)
chain: ADKLPNIVILATGGTIAGSAATGTQTTGYKAGALGVDTLINAVPEVKKLANVKGEQFSNMASENMTGDVVLKLSQRVNELLARDDVDGVVITHGTDTVEESAYFLHLTVKSDKPVVFVAAMRPATAISADGPMNLLEAVRVAGDKQSRGRGVMVVLNDRIGSARYITKTNASTLDTFKANEEGYLGVIIGNRIYYQNRIDKLHTTRSVFDVRGLTSLPKVDILYGYQDDPEYLYDAAIQHGVKGIVYAGMGAGSVSVRGIAGMRKAMEKGVVVIRSTRTGNGIVPPDEELPGLVSDSLNPAHARILLMLALTRTSDPKVIQEYFHTY
As for B2, in the assay on mitochondrial ROS, the ROS levels result is “higher ROS levels”. In addition, in the assay on KHYG-1 cells (data not shown), the “Effect of Gln addition on cell death” value is “partially prevents cell death”. In addition, the Asparaginase sensitivity result in the assay on KHYG-1 cells is given as “resistant”; with YT1 cell line, “high sensitivity”; in assay [1], “resistant”; with MEC-04 cell line, “high sensitivity”. Further, the GSH levels result with GSH (Erwinase compared to Kidrolase, data not shown) was “GSH decrease”. Further, the GSH entry with GSH (data not shown) is “more pronounced”. Further, the GSH/GSSG ratio entry in the assay on GSH (data not shown) is reported as “more pronounced”. For the same molecule, the “Effect of extracellular Gln addition on intracellular GSH levels” value with GSH (upon Erwinase treatment, data not shown) is recorded as “significantly rescues”. Moreover, in the assay on extracellular Gln, the “Gln extracellular levels in the supernatant” value was “deeper extracellular Gln depletion”.
